In US20110311550A1:

Assays:
Assay in all cases: ELISA, lectin-captured E1E2 lysate, Ab 1 ug/ml
[1] = target: E1E2 complex (H77) with E1 mutation D263A (HCV genotype 1a, isolate H77) (UniProt P27958)
[2] = target: E1E2 complex (H77) with E1 mutation A319G (HCV genotype 1a, isolate H77) (UniProt P27958)
[3] = target: E1E2 complex (H77) with E1 mutation N305A/N209A (HCV genotype 1a, isolate H77) (UniProt P27958)
[4] = target: E1E2 complex (H77) with E1 mutation N234A (HCV genotype 1a, isolate H77) (UniProt P27958)
[5] = target: E1E2 complex (H77) with E1 mutation P341A (HCV genotype 1a, isolate H77) (UniProt P27958)
[6] = target: E1E2 complex (H77) with E2 mutation Y624A (HCV genotype 1a, isolate H77) (UniProt P27958)
[7] = target: E1E2 complex (H77) with E2 mutation N623A (HCV genotype 1a, isolate H77) (UniProt P27958)
[8] = target: E1E2 complex (H77) with E1 mutation N196A/N325A (HCV genotype 1a, isolate H77) (UniProt P27958)
[9] = target: E1E2 complex (H77) with E1 mutation G311A (HCV genotype 1a, isolate H77) (UniProt P27958)
[10] = target: E1E2 complex (H77) with E1 mutation S294A (HCV genotype 1a, isolate H77) (UniProt P27958)
[11] = target: E1E2 complex (H77) with E2 mutation Y443A (HCV genotype 1a, isolate H77) (UniProt P27958)
[12] = target: E1E2 complex (H77) with E1 mutation H261A (HCV genotype 1a, isolate H77) (UniProt P27958)
[13] = target: E1E2 complex (H77) with E1 mutation D279A (HCV genotype 1a, isolate H77) (UniProt P27958)
[14] = target: E1E2 complex (H77) with E1 mutation N209A (HCV genotype 1a, isolate H77) (UniProt P27958)
[15] = target: E1E2 complex (H77) with E2 mutation A643G (HCV genotype 1a, isolate H77) (UniProt P27958)
[16] = target: E1E2 complex (H77) with E2 mutation T435A (HCV genotype 1a, isolate H77) (UniProt P27958)
[17] = target: E1E2 complex (H77) with E1 mutation N196A/N305A (HCV genotype 1a, isolate H77) (UniProt P27958)
[18] = target: E1E2 complex (H77) with E1 mutation G278A (HCV genotype 1a, isolate H77) (UniProt P27958)
[19] = target: E1E2 complex (H77) with E2 mutation R614A (HCV genotype 1a, isolate H77) (UniProt P27958)

Substance mouse anti-E1 MAb A4 (antibody) has a Binding relative to wt (%) [1] of 96%, a Binding relative to wt (%) [2] of 101% and a Binding relative to wt (%) [3] of 117%. It also gave a Binding relative to wt (%) [4] of 105%, a Binding relative to wt (%) [5] of 101% and a Binding relative to wt (%) [6] of 121%. The Binding relative to wt (%) [7] was 116%, the Binding relative to wt (%) [8] was 64% and the Binding relative to wt (%) [9] was 89%. It also gave a Binding relative to wt (%) [10] of 99%, a Binding relative to wt (%) [11] of 28% and a Binding relative to wt (%) [12] of 96%. The Binding relative to wt (%) [13] was 28%, the Binding relative to wt (%) [14] was 119% and the Binding relative to wt (%) [15] was 131%. The Binding relative to wt (%) [16] was 117%, the Binding relative to wt (%) [17] was 69% and the Binding relative to wt (%) [18] was 58%. For the same substance, the Binding relative to wt (%) [19] was 133%.
